Test results: US20090325873A1, “HUMAN GLP-1 MIMETIBODIES, COMPOSITIONS, METHODS AND USES” (CENTOCOR, INC., priority 2006, published 2009)

Target: GLP-1R on Rinm cells
Test: cell-based or functional assay

cAMP activity in Rinm cells, EC50: 0.4 nM
Substance: GLP-1 peptide (from UniProt P01275 98-127)
